Source: paper PMC12152837, “Semaglutide Aggregates into Oligomeric Micelles and Short Fibrils in Aqueous Solution” (Biomacromolecules, 2025)
“And” between values parts separate entries of the source, which are not always exact repeats. Equal entries are not always repeated.

Legend:
[1] = Nile red fluorescence assay of critical micelle concentration; format: physicochemical; conditions: 45-day aged sample in water, stored at 4 °C; 5 μM Nile red, λexc 550 nm, peak fluorescence intensity at 635 nm versus concentration
Description: Fluoroscence of tryptophan in semaglutide was excited at λexc= 295 nm, and fluorescence emission spectra were measured using a Cary Eclipse spectrofluorometer (Agilent, Didcot, UK) with excitation and emission slits of 5 nm. The spectra were recorded from 300 to 600 nm. The temperature was maintained at 20 °C during the measurements. This protocol was performed using fresh Semaglutide samples and then repeated using the same samples stored at 4 °C for 40 days, protected from the light. To determine the critical aggregation concentration (CAC) of semaglutide using Nile red, Semaglutide samples (45-day aged) were prepared in 5 μM of Nile red. The wavelength for excitation was set at λexc = 550 nm with 5 nm windows, and spectra were collected from 570 to 750 nm.
SI Fig.S13. Nile red fluorescence assay of critical micelle concentration (CMC) for a
45-day aged sample. (a) Plot of peak fluorescence intensity (l = 635 nm) versus
concentration, (b) Original fluorescence spectra.
Fluorescence Intensity (l635 nm)
Fluorescence intensity / arb. units […]

Caco-2 cells = assay: Transepithelial electrical resistance (TEER) transwell permeability assay; format: cell-based; conditions: Caco-2 monolayer on transwell, DMEM without serum, 37 °C, pH 7.4, duplicate wells, relative to DMEM control
Description: As a model of the gut epithelium, 1.5 × 10^5 Caco-2 (ATCC, EUA) immortalized colorectal adenocarcinoma cells were seeded into 12 mm Millicell hanging cell culture transwells, with a PET lower membrane permeated by pores 0.4 μm in diameter. The transwells were then inserted into a 12-well plate to create a bicameral chamber system separated by the transwell PET membrane. The cells were cultivated until reaching confluence in DMEM supplemented with 10% FBS for at least 3 weeks before starting the TEER assay in order to form semipermeable membranes composed of Caco-2 cells separating the two chambers. For the TEER assay, a multimeter (TLC Electrical, UK). The microelectrodes were immobilized in a chopstick pattern and coated in carbon conductive ink to prevent corrosion, similar to previous reports using low-cost Volt-ohmeters for TEER. −
The resistance for the Caco-2 membrane tissue (R tissue) is measured in Ohms (Ω) and defined as Rtissue=RTotal−RBlank
This represents the total resistance of the system containing the semipermeable membranes minus the initial resistance from the cell containing only media or PBS. […]
The area calculated for the transwells used in this assay is M Area (cm^2) = 1.12 cm^2. […] The TEER was calculated and is reported as % values relative to controls incubated without semaglutide.

[2] = Small-angle X-ray scattering (SAXS) of aggregates in water; format: physicochemical; conditions: for effective charge modulus per micelle z eff: Hayter–Penfold structure factor fit; for micelle inner core radius Ri / micelle outer radius Ro ± Gaussian polydispersity: core-shell sphere form factor
Description: (§1) Semaglutide powder was weighed, and the samples were prepared in glass vials using ultrapure water. To monitor the aggregation and stability, some samples were left to age up to 40 days in the fridge at 4 °C, protected from the light. The pH was observed just after preparation and after 40 days of incubation at 4 °C using pH strips due to the small volume of sample available. No evidence of microemulsion formation was observed. ^20 pH values were recorded as follows: 1 wt % fresh pH 5.5, 1 wt % aged: pH 7, 0.1 wt % fresh: pH 6.5, 0.1 wt % aged: pH 7. It is notable that the pH crosses the pK a of the N-terminal histidine (pK a = 6 is the accepted value for isolated histidine) for the more concentrated solution upon aging.
SAXS experiments were performed on beamline B21 at Diamond Light Source (Harwell, UK) and SWING at synchrotron SOLEIL (Gif-sur-Yvette, France) and on the labSAXS instrument at Diamond Light Source.
On B21, the sample solutions were loaded into the 96-well plate of an EMBL BioSAXS robot and then injected via an automated sample exchanger into a quartz capillary (1.8 mm internal diameter) in the X-ray beam. The quartz capillary was enclosed in a vacuum chamber to avoid parasitic scattering. After the sample was injected into the capillary and reached the X-ray beam, the flow was stopped during the SAXS data acquisition. Beamline B21 operates with fixed camera length (3.9 m) and fixed energy (12.4 keV). The images were captured by using a PILATUS 2 M detector. Data processing was performed using the dedicated beamline software ScÅtter. […]
SAXS experiments (extending to higher q) were also performed using a lab-based Xeuss 3.0 (Xenocs, France) instrument at Diamond Light Source, equipped with a liquid gallium MetalJet X-ray source (Excillum, Sweden) with an energy of 9.24 keV, corresponding to a wavelength of 1.34 Å. SAXS patterns were measured for 28800 s with an incident X-ray photon flux of roughly 4.06 × 10^6 ph/s on an EIGER2 R 1M detector (Dectris, Switzerland), and the sample-to-detector distance was set to 315 mm, giving a q range of 0.17–1.1 nm^–1. The beam size is roughly 0.4 × […] on the sample. The sample environment was a custom-designed low-noise flow-through cell having a thickness of roughly 0.7 mm and an area of 1.1 mm × 1.1 mm. The window material is silicon nitride. Silver behenate (layer spacing, d = 58.38 Å) was used to calibrate the SAXS data. SAXS images were analyzed using the IDL-based AXcess software package or software DAWN.
The association number of the micelle can be obtained in a model-independent fashion from the forward scattering intensity of the SAXS data in dilute solution. , The measured synchrotron SAXS data presented here is in absolute units (cm^–1) and the forward scattering (at q = 0) can be written as 1 I(0)=cmicMmic[r0vp(ρl−ρ0)]^2/NA Here, c mic is the concentration of micelles, M mic is the micelle molar mass, r 0 is the classical electron radius [0.28179 × 10^–12 cm e ^–1], v p is the partial specific volume, and ρl and ρ0 represent the lipopeptide and solvent (water) electron density. […] Rearranging eq gives 2 Mmic=I(0)NA/cmic[r0vp(ρl−ρ0)]^2 […]
Table S1. Fit parameters to the SAXS data in Fig.2b using a core-shell sphere form form factor with the Hayter-Penfold RMSA structure factor.1 The monodisperse approximation to factor the form and structure factors of isotropic solutions of centrosymmetric particles is assumed. Fitting performed using SASfit.2-3 […]
(Diamond synch.) (Diamond synch.) (Diamond synch.) (Lab SAXS)b […]
Key: Core-Shell Sphere Form factor: Ro: outer radius (σc Gaussian polydispersity in R0), Ri: inner radius, µ: ratio of scattering contrast of inner core/outer core, η: scattering contrast of core. Structure factor: RHS, hard sphere radius, φ: effective volume fraction zeff: effective charge modulus, I: ionic strength (temperature fixed at T = 293 K).
Gaussian coils: Rg: radius of gyration, Ic: intensity. Background: BG (constant). […]

[3] = Cryogenic-TEM imaging of aggregates; format: physicochemical
Description: as §1, with “To monitor the aggregation and stability, some samples were left to age up to 40 days in the fridge at 4 °C, protected from the light.” left out
Imaging was carried out using a field emission cryo-electron microscope (JEOL JEM-3200FSC), operating at 200 kV. Images were taken in bright field mode and using zero loss energy filtering (omega type) with a slit width of 20 eV. Micrographs were recorded using a Gatan Ultrascan 4000 CCD camera. The specimen temperature was maintained at −187 °C during the imaging. Vitrified specimens were prepared by using an automated FEI Vitrobot device using Quantifoil 3.5/1 holey carbon copper grids with a hole size of 3.5 μm. Just prior to use, grids were plasma cleaned using a Gatan Solarus 9500 plasma cleaner and then transferred into the environmental chamber of a FEI Vitrobot at room temperature and 100% humidity. Thereafter, 3 μL of sample solution was applied on the grid, and it was blotted twice for 5 s and then vitrified in a 1/1 mixture of liquid ethane and propane at a temperature of −180 °C. The grids with vitrified sample solution were maintained at liquid nitrogen temperature and then cryo-transferred to the microscope.

[4] = pH of aqueous solutions (pH strips); format: physicochemical
Description: as §1

[5] = ESI-MS integrity and appearance of solution after aging; format: physicochemical
Description: Semaglutide was purchased from Bioserv (Calibre Scientific, Rotherham, UK). The purity by HPLC was >95%, and it was supplied in nonsalt (base) form. The molar mass is M = 4115.7 g mol^–1 (4113.6 g mol^–1 expected). Purity (by HPLC) is >98%.
as §1

[6] = 0.5 wt % in water, aged 40 days, Diamond synchrotron
[7] = 0.5 wt %, aged 40 days, Diamond synchrotron, fixed for the fits
[8] = 1 wt % in water, aged 40 days, Diamond synchrotron
[9] = 1 wt %, aged 40 days, Diamond synchrotron, fixed for the fits

## Semaglutide
[1]
  critical micelle concentration (CMC): 0.06 wt % and 0.06 ± 0.005 wt %
Caco-2 cells; aged (40 days, 4 °C) semaglutide 0.02 wt %, after 2–4 h
  TEER, % of the initial TEER: around 90%
Caco-2 cells; fresh semaglutide 0.02 wt %, after 30 min
  TEER, % of the initial TEER: around 80%
[2]; 0.1 wt % in water, aged 40 days, Diamond synchrotron
  radius of gyration Rg (Gaussian coils): 1.57 nm
[2]; 0.1 wt % in water, aged 40 days, from SAXS forward scattering I(0) = 0.0025 cm^–1
  micelle molar mass M mic: 9111 g mol^–1
[2]; 0.1 wt % in water, aged 40 days, from SAXS forward scattering I(0), p = Mmic/Mmol
  association number p: ≈ 2.2
[2]; 0.5 and 1 wt % aged solutions
  hard sphere radii R HS from the structure factor: 2.23–2.54 nm
[2]; [6]
  hard sphere radius RHS: 2.23 nm
  effective charge modulus per micelle z eff: 9.81
[2]; [7]
  micelle inner core radius Ri: 1.50 nm
  micelle outer radius Ro ± Gaussian polydispersity: 2.31±0.59 nm
[2]; [8]
  hard sphere radius RHS: 2.54 nm
  effective charge modulus per micelle z eff: 10.8
[2]; 1 wt % in water, aged, rough estimate from the ratio of low-q intensity for 1 and 0.1 wt %
  association number p: 12–15
[2]; 1 wt %, Lab SAXS
  hard sphere radius RHS: 2.54 nm
  effective charge modulus per micelle z eff: 9.00
  micelle inner core radius Ri: 1.50 nm
  micelle outer radius Ro ± Gaussian polydispersity: 2.31±0.59 nm
[2]; 1 wt %, Lab SAXS, term for high q scattering
  radius of gyration Rg (additional Gaussian coil term): 0.8 nm
[2]; [9]
  micelle inner core radius Ri: 1.50 nm
  micelle outer radius Ro ± Gaussian polydispersity: 2.31±0.59 nm
[2]; as determined from cryo-TEM and SAXS, aged solutions at sufficiently high concentration
  micelle radius: 2 nm
[3]; 1 wt % in water, aged 40 days at 4 °C, cryo-TEM
  diameter of micelle-like structures: < 5 nm
[3]; 1 wt % sample aged 79 days, compared to the 40-day aged sample
  morphology by cryo-TEM, further aging: no further change in morphology
[3]; freshly dissolved 1 wt % solution in water
  morphology by cryo-TEM: irregular clustered morphology
[4]; 0.1 wt % in ultrapure water, aged 40 days at 4 °C
  pH of solution: 7
[4]; 0.1 wt % in ultrapure water, fresh
  pH of solution: 6.5
[4]; 1 wt % in ultrapure water, aged 40 days at 4 °C
  pH of solution: 7
[4]; 1 wt % in ultrapure water, fresh
  pH of solution: 5.5
[5]; aqueous solution, 40 days of aging at 4 °C protected from light, ESI-MS
  chemical stability in solution (degradation): No evidence for degradation in solution was observed
[5]; solutions in pure water prepared in glass vials
  appearance of solutions: transparent
